In article PMC5551413 one finds stoichiometry N data, which are given here for 3 substances.

Broadly, the stoichiometry N is a count of units in the complex or per binding partner.

The target of assay [1] is spNadC Δ69A deletion mutant (Streptococcus pyogenes). Briefly: crystal structure.
The target of assay [2] is Streptococcus pyogenes quinolinate phosphoribosyltransferase (spNadC) (Streptococcus pyogenes). Briefly: dynamic light scattering.
The target is the same in assay [3]. Briefly: SEC.
For assay [4], the target named is Streptococcus pyogenes NH3-dependent NAD+ synthetase (spNadE) (Streptococcus pyogenes). Briefly: crystal structure.
The target is the same in assay [5]. Briefly: dynamic light scattering.
Assay [6] has the same target. Briefly: SEC. A general note: SEC sorts molecules by how far they enter the pores of the column.

spNadC Δ69A deletion mutant (enzyme): the stoichiometry N in assay [1] amounted to 6.
For “Streptococcus pyogenes quinolinate phosphoribosyltransferase (spNadC) (enzyme)”, the stoichiometry N in assay [2] and in assay [3] was 6 throughout.
As to “Streptococcus pyogenes NH3-dependent NAD+ synthetase (spNadE) (enzyme)”, the stoichiometry N in assay [4], in assay [5] and in assay [6] was 2 throughout.
